# Assay: yeast display, Sf9 membrane polyspecificity reagent, FACS + sequencing; frameworks hold sequencing errors
# Summary of the method: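 Synthetic nanobody libraries on Saccharomyces cerevisiae BJ5465 were galactose-induced for 36–48 hours, stained 1 hour at 4 °C with 10% biotinylated, detergent-solubilized Sf9 membrane reagent and enriched on streptavidin microbeads. FACS then separated cells into low and high (top ~1%) gates by anti-HA (expression) and streptavidin (reagent binding) fluorescence. Genes were colony-PCR amplified, MiSeq 2 × 250 sequenced and CDR-length filtered. A clone's polyreactivity label is that of its gate of origin.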
row,Sequence,polyreactivity (PSR sort gate)
1,QVQLEESGGGLVQAGGSLRLSCAASGSIFRRNVMGWYRQAPGKERELVAAISWSGDRTYYADSVKGRFTISRDNAKNTVYLQMNSLKPVGTAVYYCAAANASPRRYGQYDYWGQGTQVTVSS,high polyreactivity
2,QVQLVESGGGLVQAGGSLRLSCAASGRTFYRYAMGWYRQAPGKERELVAAITTSGGSTYYADSVKGRFTISRDNAKNTVYLQMNSLKPEDTSVYYCSATYYGYHIRDDYWGQGTQVTVSS,low polyreactivity
3,QVQLVESGGGLVQAGGSLRLSCASSGSTWWYAMGWYRQAPGKEMELVATISYSGGSTYYADSVKGRFTISRDNAKNSVYLQMNSLKPEDTAVYYCAAKKWTAVRRDFWGQGTQVTVSS,high polyreactivity
4,QVQLVESGGGLVQARGSLRLSCAASGSTFYYYAMALSRQAPVKERELFASISDHGSTNYADSVKGRFTISRDNAKNTVFLQMNSMKPEDTAVYYCGAVWCLQFGSAWYQMGYWGQVTQVTVSS,low polyreactivity
5,QVQLVESGVGLVQAGGSLRLSCAASGITISYYSKGWSRQEPGKEREFVAAISWSVGSTYYADSVKGRFTISRDNAKNTVYLQMNSLKPEDTAVYYCAAEDGYWPTYYYWGQGTQVTVSW,high polyreactivity
6,QVQIVESGGGLVQAGGSLRLSCAASGSIFSRYTMGWYRQAPGKERELVARINSSGTSTYYADSVKGRFTISRDNEKNSVYFQMNSLKPEDTAVYYCDRTSRHVRYDYWGQGTQVTVSS,low polyreactivity
7,QVQLVESGGGLVQAGGRLRLSCAASGSTFVWYAMVWYRQAPGKEREFVATISWSDGSTYYADSVKGRFTISRDNAKNTVYLQLNSLIPEDTAVYYCASDVDRFFTYKYDYWGQGTQVTVSS,low polyreactivity
8,QVQLVESGGGLVQAGGSLRLSCAASGFTFYGYAMGWYRQAPGKERELVAAITSGGITNYADSVKGRFTISRDNAKNTVYLQMNSLKPEDTAVYYCNVKRRVSGYYGYKYYYWGQGTQVTVSS,high polyreactivity
9,QVQLVESGGGLVQAGGSLRLSCAASGSTSVYAMGWYRQAPGKERELVAAITRGGSTYYADSVKGRFTISRDNAKNTVYLQMNRLKPEDTAVYYCAVETYYSIFDIYDYWGQGTQVTVSS,low polyreactivity
10,QVQLVESGGGLVQAGGSLRLSCAASGFNFRFYAMGWYRQAPGKERELVAVITWSGGRTYYADSVKGRFTISRDNAKNTVYLQMNSLKPEDTAVYYCAAKRGKTYQRFDYWGQGTQVTVSS,high polyreactivity
11,QVQLVETGGGLVQAGGSLRLSCAASGSIFQGYAMGWYRQAPGKERELVAGITSSGGSTHYADSVKGRFTISRDNAKNTVYLQMNSLKPEDTAVYDYWGQGTQVTVSS,low polyreactivity
12,QVQLVESGGGLVQAGGSLRLSCAASGRTFYAYAMGWYRQAPGKERELVAAISWRGGDTYYADSVKGRFTISRDNAKNTVELQMNSLKPEDTAVYYCAKDLSRQSGDGEYDYWGQGTQVTVSS,low polyreactivity
13,QVQLVESGGGLVQAGGSLRLSCAASGFIFRYYAKGWYRQAPGKERELVAAISSSGGSTYYADSVKGRFTISRDNAQKTVYLQMNSLKPEDTAVYYCNAYNYGYIGYGYNYWGQGTQVTVSS,high polyreactivity
14,QVQLVESGGGLVQAGGSLRLSCAASGSIYTNAMGWYRQAPGKERELVAAISWSGGRTYYADSVKGRFTISRDNAKNTVYLQMNSLKPEDTAVYYCNTRGTRIASGHYYWGQGTQVTVSS,high polyreactivity
15,QVQLVESGGGLVQAGGSLRLSCAASGRIFRYYTMGWYRQAPGKERELVATITSDGRTNYADSVKGRFTISRDNAKNTVYLQMNSLKPEDTALYYCAAVYHRSYSLQSYGYWGQGTQVTVSS,high polyreactivity
16,QVQLVESGAGLVRAGGSLRISCAASGNIYGANTMGWYRQAPGKERELDATITWSGGDTYYADSVKGRFTISRDNAKNSVYLQMNSLKPEDTAVYYCATRRFRYRPPFKYDYWVQGTQVTVSS,low polyreactivity
17,QVQLVESAGGLVQAGGSLRLSCAASGRTFHWYTMGWYRQAPGKEREFVAGINWSGARTYYADSVKGRFTISRDNAKNTVYLQMNSLKPEDTAVYYCAKRLWGIDFDYWGQGTQVTVSS,high polyreactivity
18,QVQLVESGGGLVQAGGSLRLSCAASGFTFYRYAMGWYRQAPGKERELVAAITWSGGATYYADSVKGRFTISRDNAKNTVYLQMNSLKPEDTAVYYCAADIYDGGFDYWGQGTQVTVSS,low polyreactivity
19,QVQLVESGGGLVQAGGSLRLSCAASGRTFRYYAMGWYRQAPGKERELVAAITSGGSTYYADSVKGRFTISRDNAKNTVYLLMNSLKPEDTAAYYCAAEYVYPYWNGFDYWGQGTQVTVSS,low polyreactivity
20,QVQLVESGGGLVQAGGSLRLSCAASGSTFTANAMGWYRQAPWKERELVAAITNSDGSTYYADSVKGRFTISRDNAKNTVYLQMNSLKPEDTAVYYCAKDYYACYWEMDYWGQGTQVTVSS,low polyreactivity
21,QVQLVESAGCLVQAGASLRLSCAASGGTFRLYAMGWSRQAPGKERELVAAITGSSGGTYYADSVKGRFTISRDNAKNTVYLQMNSLKPEDTAVYYCAASSSYWGQGTQVTVSS,low polyreactivity
22,QVQLVESGGGLVQAGGSLRLSCAASGIIFAYYTMGWYRQAPGKLRELVAAISWNGGRTYYADSVKGRFTISRDNAKNTVYLQINSLKPEDTAVYYCAARDASSFLRSYYWGQGTQVTVSS,high polyreactivity
23,QVQLVESGGGLVQAGGSLRLSCAASGSTFVPYAMGWYRQAPGKERELVAVITRGSTNYADSVKGRFTISRDNAKNTVYLQMNRLKPEDTAVYYCAVDVARGVLDYSFDSWGQGTQVTVSS,high polyreactivity
24,QVLLVESGGGLVQAGGSLSISCAASGSTFGYYPMGWYRQAPGKEREFVAAISSRDGSTFYADSVQGRFTISRDNAKNTVYLQMNSLKPEDTAVYYCAKVFFHTPIVPEYDYWGQGTQVTVSS,low polyreactivity
25,QVQLVESGGGLVQAGGSLRLSCAASGLIFSRYAMGWYRQAPGKERELVAVISWSGGRTYYSDSVKGRFTISRDNAKNTVYLQMNSLQPEDTAVYYCAADYKSGGSRYDYWGQGTQVTVSS,high polyreactivity
26,QVQLVESGGGLVQAGGSVRLSCAASGSTFLHYAMGWYRQPPGKERELVAAITDSGGNTYYADSVKCRFTISRDNAKNTVYLQMNSLKPEDTAVYYCAAEYIFHYYDIFDYWGQGTQVTVSS,high polyreactivity
27,QVQLVESGGGLVQAGGSLRLSCAASGNIFYANDMGWYIQAPGKERELVAAITGSGGSTYYADSVKGRFTISRDNAKNTVYLQMDSLKPEDTAVYYCATPYDIQWASESHDSWGQGTQVTVSS,low polyreactivity
28,QVQLVESGACLVQAGGSLRLSFAASGSIFGWYTMGWYRPAPGKERELVAAISNSGTSSYYADSEKGRFTISRDTAKNTVYLQMNSLKPEDTAVYYCNAYSDLFGSYTDLGEYDYWVQGTQVTVSS,low polyreactivity
29,QVQLVESGGGLVQAGGSLRLSCAASGFTFRGNAMGWYRQAPGKERELVATISRGGNTNYADSVKGRFTISRDNAKNTVYLLMNSLKPEDTAVYYFAAVSYIRSKVSYNYWGNGTQVTVSS,low polyreactivity
30,QVQLVESGGGLVQAGGRLRLSCAASGSISYFNDMGWYRQAPGKERELVAAIRDSGGITYADSVKGRFTISRDNAKNTVYLQMNSLKPEDTAVYYCATYGNEIYDYWGQGTQVTVSS,low polyreactivity

# — the nanobody polyreactivity screen of Harvey et al. (2022)
